# Test results from US20260015399A1 (Boehringer Ingelheim, published 2026).
# *1 amine or outer side, *2 acyl side, *3 side chain or, on linkers, in order; H or OH if unused. Side-chain parts run from the residue outwards. The star is where a group is joined. C18 diacid = O=C(O)CCCCCCCCCCCCCCCCC(=O)*; γGlu = O=C(O)[C@H](CCC(=O)[*:2])N[*:1]; Isovaleryl = CC(C)CC(=O)*; Ahx = NCCCCCC(=O)O
# B1: Compound 66 (peptide)
# peptide: Isovaleryl-APEK([Ahx-γGlu-C18 diacid])PEEDATPEELQRYYISLRHYYNWLTRQRY-NH2
# SMILES: CC[C@H](C)[C@H](NC(=O)[C@H](Cc1ccc(O)cc1)NC(=O)[C@H](Cc1ccc(O)cc1)NC(=O)[C@H](CCCNC(=N)N)NC(=O)[C@H](CCC(N)=O)NC(=O)[C@H](CC(C)C)NC(=O)[C@H](CCC(=O)O)NC(=O)[C@H](CCC(=O)O)NC(=O)[C@@H]1CCCN1C(=O)[C@@H](NC(=O)[C@H](C)NC(=O)[C@H](CC(=O)O)NC(=O)[C@H](CCC(=O)O)NC(=O)[C@H](CCC(=O)O)NC(=O)[C@@H]1CCCN1C(=O)[C@H](CCCCNC(=O)CCCCCNC(=O)CC[C@H](NC(=O)CCCCCCCCCCCCCCCCC(=O)O)C(=O)O)NC(=O)[C@H](CCC(=O)O)NC(=O)[C@@H]1CCCN1C(=O)[C@H](C)NC(=O)CC(C)C)[C@@H](C)O)C(=O)N[C@@H](CO)C(=O)N[C@@H](CC(C)C)C(=O)N[C@@H](CCCNC(=N)N)C(=O)N[C@@H](Cc1c[nH]cn1)C(=O)N[C@@H](Cc1ccc(O)cc1)C(=O)N[C@@H](Cc1ccc(O)cc1)C(=O)N[C@@H](CC(N)=O)C(=O)N[C@@H](Cc1c[nH]c2ccccc12)C(=O)N[C@@H](CC(C)C)C(=O)N[C@H](C(=O)N[C@@H](CCCNC(=N)N)C(=O)N[C@@H](CCC(N)=O)C(=O)N[C@@H](CCCNC(=N)N)C(=O)N[C@@H](Cc1ccc(O)cc1)C(N)=O)[C@@H](C)O
# B2: Compound 77 (peptide)
# peptide: Isovaleryl-APAK([Ahx-γGlu-C18 diacid])PEEDASPEELQRYYVSLRHYQNWLTRQRY-NH2
# SMILES: CC(C)CC(=O)N[C@@H](C)C(=O)N1CCC[C@H]1C(=O)N[C@@H](C)C(=O)N[C@@H](CCCCNC(=O)CCCCCNC(=O)CC[C@H](NC(=O)CCCCCCCCCCCCCCCCC(=O)O)C(=O)O)C(=O)N1CCC[C@H]1C(=O)N[C@@H](CCC(=O)O)C(=O)N[C@@H](CCC(=O)O)C(=O)N[C@@H](CC(=O)O)C(=O)N[C@@H](C)C(=O)N[C@@H](CO)C(=O)N1CCC[C@H]1C(=O)N[C@@H](CCC(=O)O)C(=O)N[C@@H](CCC(=O)O)C(=O)N[C@@H](CC(C)C)C(=O)N[C@@H](CCC(N)=O)C(=O)N[C@@H](CCCNC(=N)N)C(=O)N[C@@H](Cc1ccc(O)cc1)C(=O)N[C@@H](Cc1ccc(O)cc1)C(=O)N[C@H](C(=O)N[C@@H](CO)C(=O)N[C@@H](CC(C)C)C(=O)N[C@@H](CCCNC(=N)N)C(=O)N[C@@H](Cc1c[nH]cn1)C(=O)N[C@@H](Cc1ccc(O)cc1)C(=O)N[C@@H](CCC(N)=O)C(=O)N[C@@H](CC(N)=O)C(=O)N[C@@H](Cc1c[nH]c2ccccc12)C(=O)N[C@@H](CC(C)C)C(=O)N[C@H](C(=O)N[C@@H](CCCNC(=N)N)C(=O)N[C@@H](CCC(N)=O)C(=O)N[C@@H](CCCNC(=N)N)C(=O)N[C@@H](Cc1ccc(O)cc1)C(N)=O)[C@@H](C)O)C(C)C
# B3: Compound 73 (peptide)
# peptide: Isovaleryl-APEK([Ahx-γGlu-C18 diacid])PEEAASPEELQRYYVALRHYYNWLTRQRY-NH2
# SMILES: CC(C)CC(=O)N[C@@H](C)C(=O)N1CCC[C@H]1C(=O)N[C@@H](CCC(=O)O)C(=O)N[C@@H](CCCCNC(=O)CCCCCNC(=O)CC[C@H](NC(=O)CCCCCCCCCCCCCCCCC(=O)O)C(=O)O)C(=O)N1CCC[C@H]1C(=O)N[C@@H](CCC(=O)O)C(=O)N[C@@H](CCC(=O)O)C(=O)N[C@@H](C)C(=O)N[C@@H](C)C(=O)N[C@@H](CO)C(=O)N1CCC[C@H]1C(=O)N[C@@H](CCC(=O)O)C(=O)N[C@@H](CCC(=O)O)C(=O)N[C@@H](CC(C)C)C(=O)N[C@@H](CCC(N)=O)C(=O)N[C@@H](CCCNC(=N)N)C(=O)N[C@@H](Cc1ccc(O)cc1)C(=O)N[C@@H](Cc1ccc(O)cc1)C(=O)N[C@H](C(=O)N[C@@H](C)C(=O)N[C@@H](CC(C)C)C(=O)N[C@@H](CCCNC(=N)N)C(=O)N[C@@H](Cc1c[nH]cn1)C(=O)N[C@@H](Cc1ccc(O)cc1)C(=O)N[C@@H](Cc1ccc(O)cc1)C(=O)N[C@@H](CC(N)=O)C(=O)N[C@@H](Cc1c[nH]c2ccccc12)C(=O)N[C@@H](CC(C)C)C(=O)N[C@H](C(=O)N[C@@H](CCCNC(=N)N)C(=O)N[C@@H](CCC(N)=O)C(=O)N[C@@H](CCCNC(=N)N)C(=O)N[C@@H](Cc1ccc(O)cc1)C(N)=O)[C@@H](C)O)C(C)C
# B4: Compound 68 (peptide)
# peptide: Isovaleryl-APEK([Ahx-γGlu-C18 diacid])PEEDAEPEELQRYYVSLRHYYQWLTRQRY-NH2
# SMILES: CC(C)CC(=O)N[C@@H](C)C(=O)N1CCC[C@H]1C(=O)N[C@@H](CCC(=O)O)C(=O)N[C@@H](CCCCNC(=O)CCCCCNC(=O)CC[C@H](NC(=O)CCCCCCCCCCCCCCCCC(=O)O)C(=O)O)C(=O)N1CCC[C@H]1C(=O)N[C@@H](CCC(=O)O)C(=O)N[C@@H](CCC(=O)O)C(=O)N[C@@H](CC(=O)O)C(=O)N[C@@H](C)C(=O)N[C@@H](CCC(=O)O)C(=O)N1CCC[C@H]1C(=O)N[C@@H](CCC(=O)O)C(=O)N[C@@H](CCC(=O)O)C(=O)N[C@@H](CC(C)C)C(=O)N[C@@H](CCC(N)=O)C(=O)N[C@@H](CCCNC(=N)N)C(=O)N[C@@H](Cc1ccc(O)cc1)C(=O)N[C@@H](Cc1ccc(O)cc1)C(=O)N[C@H](C(=O)N[C@@H](CO)C(=O)N[C@@H](CC(C)C)C(=O)N[C@@H](CCCNC(=N)N)C(=O)N[C@@H](Cc1c[nH]cn1)C(=O)N[C@@H](Cc1ccc(O)cc1)C(=O)N[C@@H](Cc1ccc(O)cc1)C(=O)N[C@@H](CCC(N)=O)C(=O)N[C@@H](Cc1c[nH]c2ccccc12)C(=O)N[C@@H](CC(C)C)C(=O)N[C@H](C(=O)N[C@@H](CCCNC(=N)N)C(=O)N[C@@H](CCC(N)=O)C(=O)N[C@@H](CCCNC(=N)N)C(=O)N[C@@H](Cc1ccc(O)cc1)C(N)=O)[C@@H](C)O)C(C)C
# B5: Compound 69 (peptide)
# peptide: Isovaleryl-APEK([Ahx-γGlu-C18 diacid])PPADASPEETQRYYVSLRHYYNWLTRQRY-NH2
# SMILES: CC(C)CC(=O)N[C@@H](C)C(=O)N1CCC[C@H]1C(=O)N[C@@H](CCC(=O)O)C(=O)N[C@@H](CCCCNC(=O)CCCCCNC(=O)CC[C@H](NC(=O)CCCCCCCCCCCCCCCCC(=O)O)C(=O)O)C(=O)N1CCC[C@H]1C(=O)N1CCC[C@H]1C(=O)N[C@@H](C)C(=O)N[C@@H](CC(=O)O)C(=O)N[C@@H](C)C(=O)N[C@@H](CO)C(=O)N1CCC[C@H]1C(=O)N[C@@H](CCC(=O)O)C(=O)N[C@@H](CCC(=O)O)C(=O)N[C@H](C(=O)N[C@@H](CCC(N)=O)C(=O)N[C@@H](CCCNC(=N)N)C(=O)N[C@@H](Cc1ccc(O)cc1)C(=O)N[C@@H](Cc1ccc(O)cc1)C(=O)N[C@H](C(=O)N[C@@H](CO)C(=O)N[C@@H](CC(C)C)C(=O)N[C@@H](CCCNC(=N)N)C(=O)N[C@@H](Cc1c[nH]cn1)C(=O)N[C@@H](Cc1ccc(O)cc1)C(=O)N[C@@H](Cc1ccc(O)cc1)C(=O)N[C@@H](CC(N)=O)C(=O)N[C@@H](Cc1c[nH]c2ccccc12)C(=O)N[C@@H](CC(C)C)C(=O)N[C@H](C(=O)N[C@@H](CCCNC(=N)N)C(=O)N[C@@H](CCC(N)=O)C(=O)N[C@@H](CCCNC(=N)N)C(=O)N[C@@H](Cc1ccc(O)cc1)C(N)=O)[C@@H](C)O)C(C)C)[C@@H](C)O
# B6: Compound 78 (peptide)
# peptide: Isovaleryl-APAK([Ahx-γGlu-C18 diacid])PEEDASPEELQRYYVSLRHYYQWLTRQRY-NH2
# SMILES: CC(C)CC(=O)N[C@@H](C)C(=O)N1CCC[C@H]1C(=O)N[C@@H](C)C(=O)N[C@@H](CCCCNC(=O)CCCCCNC(=O)CC[C@H](NC(=O)CCCCCCCCCCCCCCCCC(=O)O)C(=O)O)C(=O)N1CCC[C@H]1C(=O)N[C@@H](CCC(=O)O)C(=O)N[C@@H](CCC(=O)O)C(=O)N[C@@H](CC(=O)O)C(=O)N[C@@H](C)C(=O)N[C@@H](CO)C(=O)N1CCC[C@H]1C(=O)N[C@@H](CCC(=O)O)C(=O)N[C@@H](CCC(=O)O)C(=O)N[C@@H](CC(C)C)C(=O)N[C@@H](CCC(N)=O)C(=O)N[C@@H](CCCNC(=N)N)C(=O)N[C@@H](Cc1ccc(O)cc1)C(=O)N[C@@H](Cc1ccc(O)cc1)C(=O)N[C@H](C(=O)N[C@@H](CO)C(=O)N[C@@H](CC(C)C)C(=O)N[C@@H](CCCNC(=N)N)C(=O)N[C@@H](Cc1c[nH]cn1)C(=O)N[C@@H](Cc1ccc(O)cc1)C(=O)N[C@@H](Cc1ccc(O)cc1)C(=O)N[C@@H](CCC(N)=O)C(=O)N[C@@H](Cc1c[nH]c2ccccc12)C(=O)N[C@@H](CC(C)C)C(=O)N[C@H](C(=O)N[C@@H](CCCNC(=N)N)C(=O)N[C@@H](CCC(N)=O)C(=O)N[C@@H](CCCNC(=N)N)C(=O)N[C@@H](Cc1ccc(O)cc1)C(N)=O)[C@@H](C)O)C(C)C
# Target: T1, human NPY2 receptor (human, UniProt P49146 1-381)
# T1 construct: whole, on cells; also called hNPY2-R; hNPY2R
# T1 sequence (looked up): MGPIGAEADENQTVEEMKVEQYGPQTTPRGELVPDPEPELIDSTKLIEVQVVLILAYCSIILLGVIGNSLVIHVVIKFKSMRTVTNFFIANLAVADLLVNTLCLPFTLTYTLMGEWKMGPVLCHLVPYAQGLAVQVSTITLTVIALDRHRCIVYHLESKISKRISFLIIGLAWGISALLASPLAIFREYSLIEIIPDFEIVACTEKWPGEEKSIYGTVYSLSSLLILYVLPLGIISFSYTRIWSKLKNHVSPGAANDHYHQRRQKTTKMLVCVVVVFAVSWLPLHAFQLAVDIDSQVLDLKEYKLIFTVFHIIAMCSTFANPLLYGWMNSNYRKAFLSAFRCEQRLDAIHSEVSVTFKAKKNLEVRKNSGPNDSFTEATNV
# Assay: RLB: displacement of 125I-PYY(1-36) from hNPY2R membranes
row,Binder,Ki [nM]
1,B1,2.33
2,B2,9.73
3,B3,2.16
4,B4,9.07
5,B5,0.54
6,B6,1.8
